Assay results published in US20130035471A1.

Assays:
[1] = target: biotinylated IgG; assay: BIAcore; half-life calculated as 0.693/koff/60
[2] = target: biotinylated IgG; assay: BIAcore, biotinylated IgG immobilised, mutein injected

2-aa-loop mutein (streptavidin, loop7-8 replaced by N G), sequence (P22629 other isoform, or with tags, fused parts or gaps mutant): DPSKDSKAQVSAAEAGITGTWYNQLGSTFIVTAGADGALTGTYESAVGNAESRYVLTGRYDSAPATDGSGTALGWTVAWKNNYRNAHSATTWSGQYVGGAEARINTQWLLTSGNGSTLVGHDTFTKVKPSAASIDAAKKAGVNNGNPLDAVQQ
6-aa-loop mutein (streptavidin, loop7-8 replaced by D S N G S G), sequence (P22629 other isoform, or with tags, fused parts or gaps mutant): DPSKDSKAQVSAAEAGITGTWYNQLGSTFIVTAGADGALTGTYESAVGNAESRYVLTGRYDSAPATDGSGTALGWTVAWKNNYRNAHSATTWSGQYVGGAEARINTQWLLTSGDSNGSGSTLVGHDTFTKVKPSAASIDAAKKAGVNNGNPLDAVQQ

Substance	t1/2 [1] [h]	Kd [2] [nM]	koff [2] [s⁻¹]	kon [2] [M⁻¹ s⁻¹]
2-aa-loop mutein (streptavidin, loop7-8 replaced by N G) (from UniProt P22629 25-183)	2.75	1.12	7.02e-05	63000
6-aa-loop mutein (streptavidin, loop7-8 replaced by D S N G S G) (from UniProt P22629 25-183)	2.53	3.13	7.59e-05	24300
8-aa-loop-H127C mutein (streptavidin, loop7-8 replaced by D S S N G S D G, with H127C) (from UniProt P22629 25-183)	0.45	19	0.000428	22100
ΔW-HC mutein (streptavidin with Trp-120 deleted and H127C) (from UniProt P22629 25-183)	0.482	8.1	0.0004	49600
